Results on one molecule are retold here after US20140079722A1, “EXTRACELLULAR TARGETED DRUG CONJUGATES” (CENTROSE, LLC, priority 2011, published 2014).

One series concerns A549 xenografts. Nature of the series: Second A549 xenograft study (tumor fragments). The class given is in vivo, female HRLN nu/nu mice. Here is the method: Briefly, to establish a non-small-cell lung cancer disease model, subcutaneous A549 xenografts were initiated in female HRLN nu/nu mice by implanting 8 mm^3 A549 tumor fragments subcutaneously into the left flank. Tumor growth was monitored, and mice bearing tumors of 60-180 mm^3 were selected for the study. Tumor-bearing mice (n=7 mice/group) with a group average tumor volume of approximately 110 mm^3 were treated i.p. with 5 mgs/kg M53-PEG24-CEN09-106 at q3d×4, 20 mg/kg scillarenin-4-amino-deoxy-L-xylopryanoside (an intermediate in the construction of M53-PEG24-CEN09-106 and known cytotoxin) at q2dx5, and 15 mg/kg paclitaxel at q1d×5. Tumor volumes were measured for each group using calibrated vernier calipers plotted against day of first dose for 100 days to produce the graph shown in FIG. 4.
Paclitaxel at its optimum dosing produced 80% growth inhibition of the tumor when compared to vehicle.

A further series concerns Panc-1 xenografts. Nature of the series: Panc-1 subcutaneous xenograft model (tumor fragments). The class given is in vivo, female HRLN nu/nu mice. The note with it: drug loading of 7; 1, 5, 15 mg/kg iv Q3Dx7 or Q7Dx3. As for the experimental part: In another study, the Panc-1 subcutaneous xenograft model was used to evaluate antitumor activity of M53-PEG24-CEN09-106 with a drug loading of 7 drugs per antibody. Subcutaneous Panc-1 xenografts were initiated in female HRLN nu/nu mice by implanting 1 mm^3 PANC-1 tumor fragments were implanted subcutaneously into the right flank, tumor growth was monitored and mice bearing tumors of 80-120 mm^3 were selected for the study. Tumor volume was measured for each group 2× per week using calibrated vernier calipers plotted against day of first dose to produce the graph shown in FIG. 7. Among the treatment groups, no toxic effects were observed (toxicity determined as >10% weight loss during study period).

Series [1] relates to primary human umbilical artery endothelial cells (HUAEC). Nature of the series: In vitro normal cell cytotoxicity. Particulars: HUAEC, 72 hrs; conjugates as antibody concentration; read-out: EC50. It is filed as cell-based. As for the experimental part:
(§1) In vitro normal cell cytotoxicity. The in vitro cytotoxic activity of M53-PEG24-CEN09-106, PEG24-CEN09-106, M53-PEG24-CEN-319, PEG24-CEN-319, proscillaridin and digitoxin against dysadherin positive primary normal human cells and a dysadherin positive human non-small cell lung carcinoma (NSCLC) cell line were tested and compared. The cells used were primary human renal epithelial cells (HREpC), primary human umbilical vein endothelial cells (HUVEC), primary human umbilical artery endothelial cells (HUAEC), and the A549 NSCLC cells. The primary cells were obtained from PromoCell GmbH, Heidelberg, Germany, and the NSCLC cell line A549 was obtained from ATCC. Primary renal epithelial cells were grown in Renal Epithelial Cell Growth Medium 2 (PromoCell GmbH, Heidelberg, Germany). Primary endothelial cells were grown in Endothelial Cell Growth Medium 2 (PromoCell GmbH, Heidelberg, Germany). The NSCLC cell line was grown in RPMI-1640 (HyClone, Thermo Scientific) supplemented with 10% fetal bovine serum. HREpC, HUVEC, HUAEC, and A549 cells were plated in 384 well plates at 1250, 1875, 2500, and 1250 cells/well (respectively) and allowed to incubate for 24 hrs at 37° C., 5% CO2, and 100% humidity. Various concentrations of conjugates M53-PEG24-CEN09-106 and […] and PEG24-CEN09-106 and […] were added to the wells in a total volume of 5 uL of media and the plates were incubated for an additional 72 hrs. After 72 hrs of exposure to agent, cell viability was evaluated using the Cell Titer-Glo Luminescent Cell Viability Assay (Promega, Madison, Wis.) according to the manufacturer's instructions. Luminescence measurements were performed using a Wallac Victor^2 Model 1420-041 assay plate reader (Perkin Elmer, Gaithersburg, Md.). EC50 values for each test agent were determined using GraphPad Prism 5 software.

Series [2] relates to primary human umbilical vein endothelial cells (HUVEC). In words: In vitro normal cell cytotoxicity. It is filed as cell-based. The note with it: 72 hrs, conjugates as antibody concentration, read-out: EC50. Here is the method: as §1
A short description of series [3]: Pharmacokinetics with varying drug loading (antigen binding ELISA). The class given is in vivo. The note with it: SCID beige mice. Here is the method:
Serum was isolated from blood samples taken by retro-orbital blood collection at 1 hour, and 1, 2, 3, 6, and 15 days post-injection. Blood was collected into heparin coated tubes followed by centrifugation (5,000×g, 5 minutes) to isolate plasma.
Antigen capture plates that were prepared by coating wells of 96 well clear bottom ELISA plates with CENP018 (SEQ ID NO: 17) conjugated to BSA at 400 ng BSA-peptide conjugate per well in 100 uL of 200 mM carbonate buffer, pH 9.6 overnight at 4° C. Antigen coated ELISA plates were washed (×3) with PBS pH 7, blocked 30 min with PBS pH 7 containing 1% NFDM (PBS+NFDM), and then washed (×3) with PBS, pH 7. […] Goat anti-mouse IgG alkaline phosphatase (cat. number: A1418, Sigma-Aldrich, St. Louis, Mo.) was diluted 1:15,000 in PBS+NFDM and added (100 uL) to each well, incubated 30 min at RT, and the wells washed (×3) with PBS, pH 7. PNPP at 1 mg/mL in 1M DEA with 50 mM MgCl2, pH 9.8 was added (100 uL per well), and the absorbance at 405 nm was determined using a Wallac Victor^2 Model 1420-041 assay plate reader (Perkin Elmer, Gaithersburg, Md.) every 5 minutes for a total of 6 reads. Absorbance values from known antibody concentration standards were used to determine the concentration of antibody in the serum samples.
(In an ELISA, binding on a coated surface is turned into a signal by an enzyme label.)

B1: M53-PEG24-CEN09-106: Class 1 EDC: antibody M53 conjugated to linker-ready agent PEG24-CEN09-106 (scillarenin, 4-amino-xyloside, PEG24) (conjugate)
heavy: EVQLVESGGGLVQPKGTLKLSCAASGFSFNTHAMNWVRQAPGKSLEWVARTMSKSNNYATYYADSVKDRFIIRADDSQSMLYLQMNNLKTEDTAMYYCVRDDPKRGMDYWGQGTSVTVSSAKTTPPSVYPLAPGSAAQTNSMVTLGCLVKGYFPEPVTVTWNSGSLSSGVHTFPAVLQSDLYTLSSSVTVPSSTWPSETVTCNVAHPASSTKVDKKIE
light: GIVMSQSPSSLAVSVGEKVTMSCKPSQSLLYSRNQKIYLAWYQQKPGQSPKLLIYWASTRESGVPDRFTGSGSGTDFTLIISSVRAEDLAVYYCQQYYNYPLTFGAGTKLELKRADAAPTVSIFPPSSEQLTSGGASVVCFLNNFYPKDINVKWKIDGSERQNGVLNSWTDQDSKDSTYSMSSTLTLTKDEYERHNSYTCEATHKTSTSPIVKSFNR
Consider B1, for which, in the series with A549 xenografts (100 days post-initial dose, EDC (loading 3) 5 mg/kg i.p. q3dx4, scillarenin aminoxyloside 20 mg/kg q2dx5, paclitaxel 15 mg/kg q1dx5), the “growth inhibition of the tumor compared to vehicle” value is given as 72%. Besides, the weight loss result in the series on A549 xenografts (same dosing as efficacy arms, second A549 xenograft study) is “no weight loss”. In addition, the “tumor response compared to vehicle group” value in the series on Panc-1 xenografts is “tumor reduction in a dose dependent manner”. Moreover, the figures for the EC50 in series [1] and in series [2] were 29 nM and 30 nM, respectively. For the same molecule, the “serum half-life of detectable antibody” value in series [3] (drug loading of 2, 1 mg/kg tail vein) is reported as “approximately 7 days”; in series [3] (drug loading of 5, 1 mg/kg tail vein) it was roughly 4 days; in series [3] (drug loading of 9, 1 mg/kg tail vein), roughly 2 days.
